Source: patent US20100093618A1 (published 2010)

Tests used:
[1] = molecular target: T1, [35S]methionine-labeled IκB-α 1-263 (in vitro translated) (UniProt P25963 1-263, [35S]methionine label); assay: GST-Tat pulldown of [35S]-labeled in vitro translated protein, autoradiography
T1 construct: Translated in vitro from pcDNA3
T1 sequence (looked up): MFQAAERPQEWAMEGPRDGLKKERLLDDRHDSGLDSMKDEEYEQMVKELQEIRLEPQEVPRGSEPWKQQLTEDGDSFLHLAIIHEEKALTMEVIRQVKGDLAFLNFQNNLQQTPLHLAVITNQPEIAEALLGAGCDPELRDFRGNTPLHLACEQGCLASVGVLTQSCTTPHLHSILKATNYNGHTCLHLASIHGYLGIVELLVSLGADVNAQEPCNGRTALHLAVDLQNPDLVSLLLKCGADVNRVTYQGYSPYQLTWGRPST
Description: (§1) The pcDNA3 plasmids expressing the IκB genes under the T7 promoter were used as templates to translate in vitro the [³⁵S]methionine-labeled IκB proteins by using the TNT Quick Coupled transcription/translation systems (Promega). Aliquots (10 μl) of translation mixture were incubated with GST-Tat or GST proteins (10 μg) in 500 μl of binding buffer supplemented with 1 μg/μl of bovine serum albumin on a rocking platform for 3 h at room temperature.

[2] = molecular target: T2, p105 (in vitro translated) (human, UniProt P19838 1-968); assay: GST-Tat pulldown of in vitro translated protein, anti-p105 Western blot
T2 sequence: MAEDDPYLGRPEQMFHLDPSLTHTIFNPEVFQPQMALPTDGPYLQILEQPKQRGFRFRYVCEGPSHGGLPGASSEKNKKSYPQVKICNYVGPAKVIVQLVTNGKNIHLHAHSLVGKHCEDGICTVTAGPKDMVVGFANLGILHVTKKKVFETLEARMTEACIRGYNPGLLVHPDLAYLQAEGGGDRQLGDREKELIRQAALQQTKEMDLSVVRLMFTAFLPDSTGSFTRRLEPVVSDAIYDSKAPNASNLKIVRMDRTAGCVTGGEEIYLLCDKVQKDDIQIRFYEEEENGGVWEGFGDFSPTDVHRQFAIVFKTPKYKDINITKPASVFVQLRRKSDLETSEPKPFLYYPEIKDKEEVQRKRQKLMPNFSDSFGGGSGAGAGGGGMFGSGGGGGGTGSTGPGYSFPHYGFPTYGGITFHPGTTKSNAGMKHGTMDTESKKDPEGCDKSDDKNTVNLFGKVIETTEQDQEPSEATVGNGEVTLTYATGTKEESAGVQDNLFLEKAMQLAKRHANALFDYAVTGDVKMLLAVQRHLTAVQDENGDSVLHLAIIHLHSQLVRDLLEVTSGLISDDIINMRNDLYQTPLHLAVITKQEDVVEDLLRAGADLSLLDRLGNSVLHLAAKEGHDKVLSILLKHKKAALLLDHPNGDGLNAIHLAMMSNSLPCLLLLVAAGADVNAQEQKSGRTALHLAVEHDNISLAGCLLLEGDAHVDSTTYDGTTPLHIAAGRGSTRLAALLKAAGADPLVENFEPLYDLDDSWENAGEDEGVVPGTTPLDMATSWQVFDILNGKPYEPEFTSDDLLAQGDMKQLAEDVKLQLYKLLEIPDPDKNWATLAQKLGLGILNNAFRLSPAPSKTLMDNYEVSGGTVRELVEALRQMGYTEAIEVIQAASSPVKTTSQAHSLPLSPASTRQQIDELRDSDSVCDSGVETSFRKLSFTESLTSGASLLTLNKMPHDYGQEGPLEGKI
Description: (§2) The proteins were resolved on 10% SDS-PAGE, transferred to polyvinylidene difluoride membranes, and analyzed by immunoblotting with the indicated antibodies. The pcDNA3 plasmids expressing the IκB genes under the T7 promoter were used as templates to translate in vitro the [³⁵S]methionine-labeled IκB proteins by using the TNT Quick Coupled transcription/translation systems (Promega). Aliquots (10 μl) of translation mixture were incubated with GST-Tat or GST proteins (10 μg) in 500 μl of binding buffer supplemented with 1 μg/μl of bovine serum albumin on a rocking platform for 3 h at room temperature.

[3] = molecular target: T3, FLAG-p100 (in vitro translated) (human, UniProt Q00653 1-900); assay: GST-Tat pulldown of in vitro translated protein, anti-FLAG Western blot
T3 sequence: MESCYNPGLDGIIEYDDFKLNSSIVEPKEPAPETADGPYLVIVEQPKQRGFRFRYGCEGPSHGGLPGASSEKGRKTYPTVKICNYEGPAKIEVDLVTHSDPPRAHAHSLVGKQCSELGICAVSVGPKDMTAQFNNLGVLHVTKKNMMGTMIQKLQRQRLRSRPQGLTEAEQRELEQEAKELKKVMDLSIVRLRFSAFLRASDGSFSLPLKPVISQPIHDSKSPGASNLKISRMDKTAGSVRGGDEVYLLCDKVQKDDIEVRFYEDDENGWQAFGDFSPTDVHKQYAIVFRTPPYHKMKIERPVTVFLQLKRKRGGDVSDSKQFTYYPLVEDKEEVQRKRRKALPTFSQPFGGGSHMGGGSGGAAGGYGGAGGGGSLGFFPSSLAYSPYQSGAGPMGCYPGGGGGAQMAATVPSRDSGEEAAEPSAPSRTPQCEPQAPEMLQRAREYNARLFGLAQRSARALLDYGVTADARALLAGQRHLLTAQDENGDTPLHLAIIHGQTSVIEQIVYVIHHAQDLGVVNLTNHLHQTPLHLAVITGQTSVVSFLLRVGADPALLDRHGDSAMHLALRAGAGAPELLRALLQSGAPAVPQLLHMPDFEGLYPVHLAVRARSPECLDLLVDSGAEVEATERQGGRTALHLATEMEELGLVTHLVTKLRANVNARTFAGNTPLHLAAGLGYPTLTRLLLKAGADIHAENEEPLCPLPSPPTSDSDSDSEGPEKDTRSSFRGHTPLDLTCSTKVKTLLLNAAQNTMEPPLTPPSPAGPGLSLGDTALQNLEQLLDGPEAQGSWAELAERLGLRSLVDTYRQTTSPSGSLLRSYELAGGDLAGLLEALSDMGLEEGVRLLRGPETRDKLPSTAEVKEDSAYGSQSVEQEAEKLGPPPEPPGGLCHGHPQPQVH
Description: as §2

[4] = molecular target: T4, GST (UniProt P08515 1-218 = GST); assay: GST pulldown from extracts of transfected HeLa cells, anti-FLAG Western blot
T4 construct: Negative control in the pulldowns; also called GST protein; GST alone

[5] = molecular target: T5, GST-IκB-α (UniProt P25963 1-317); assay: GST-IκB-α pulldown from extracts of transfected HeLa cells, anti-FLAG Western blot
T5 construct: also called pGEX-2T-IκB-α product; not shown: glutathione S-transferase (GST) encoded by pGEX-2T
T5 sequence: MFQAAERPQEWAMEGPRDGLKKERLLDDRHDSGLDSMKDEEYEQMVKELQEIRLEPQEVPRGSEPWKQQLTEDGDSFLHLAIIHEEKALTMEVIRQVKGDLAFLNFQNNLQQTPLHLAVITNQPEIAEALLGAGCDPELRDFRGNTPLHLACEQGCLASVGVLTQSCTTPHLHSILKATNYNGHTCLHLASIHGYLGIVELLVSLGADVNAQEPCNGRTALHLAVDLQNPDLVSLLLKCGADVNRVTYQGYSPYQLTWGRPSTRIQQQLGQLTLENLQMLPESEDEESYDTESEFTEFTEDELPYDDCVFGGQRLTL

[6] = molecular target: T4, GST; assay: GST pulldown of [35S]-labeled in vitro translated protein, autoradiography
Description: as §1

T4 sequence (P08515 whole entry): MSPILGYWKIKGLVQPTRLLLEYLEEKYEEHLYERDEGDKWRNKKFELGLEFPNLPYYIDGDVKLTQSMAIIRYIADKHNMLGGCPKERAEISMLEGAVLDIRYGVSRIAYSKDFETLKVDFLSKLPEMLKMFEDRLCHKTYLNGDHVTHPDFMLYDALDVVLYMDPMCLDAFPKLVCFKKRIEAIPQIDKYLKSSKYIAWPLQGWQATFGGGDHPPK

Binder | binding result [4] | binding result [6] | also measured
GST-Tat (other, also called GST-Tat fusion protein from pGEX-2T-Tat; not shown: glutathione S-transferase (GST) encoded by pGEX-2T) MEPVDPRLEPWKHPGSQPKTACTNCYCKKCCFHCQVCFITKALGISYGRKKRRQRRRAHQNSQTHQASLSKQPTSQPRGDPTGPKE | – | – | binding result [1]: no binding; binding result [2]: no binding; binding result [3]: no binding
FLAG-Tat C(22,25,27)A (p3XFLAG-CMV-Tat C(22,25,27)A) (other, Expressed in transfected HeLa cells) MEPVDPRLEPWKHPGSQPKTAATNAYAKKCCFHCQVCFITKALGISYGRKKRRQRRRAHQNSQTHQASLSKQPTSQPRGDPTGPKE | no binding | – | –
FLAG-Tat R(49-57)A (p3XFLAG-CMV-Tat R(49-57)A) (other) MEPVDPRLEPWKHPGSQPKTACTNCYCKKCCFHCQVCFITKALGISYGAKKAAQAAAAHQNSQTHQASLSKQPTSQPRGDPTGPKE | no binding | – | binding result [5]: no binding
FLAG-Tat (p3XFLAG-CMV-Tat, wild type) (other, Expressed in transfected HeLa cells (or MEFs); also called wild type Tat) MEPVDPRLEPWKHPGSQPKTACTNCYCKKCCFHCQVCFITKALGISYGRKKRRQRRRAHQNSQTHQASLSKQPTSQPRGDPTGPKE | no binding | – | –
[35S]methionine-labeled IκB-α 72-287 (in vitro translated) (other, [35S]methionine label) EDGDSFLHLAIIHEEKALTMEVIRQVKGDLAFLNFQNNLQQTPLHLAVITNQPEIAEALLGAGCDPELRDFRGNTPLHLACEQGCLASVGVLTQSCTTPHLHSILKATNYNGHTCLHLASIHGYLGIVELLVSLGADVNAQEPCNGRTALHLAVDLQNPDLVSLLLKCGADVNRVTYQGYSPYQLTWGRPSTRIQQQLGQLTLENLQMLPESEDEE | – | no binding | –
[35S]methionine-labeled IκB-α 72-287 L(272,274,277)A (in vitro translated) (other, UniProt P25963 72-287, looked up, [35S]methionine label, range 72-287) EDGDSFLHLAIIHEEKALTMEVIRQVKGDLAFLNFQNNLQQTPLHLAVITNQPEIAEALLGAGCDPELRDFRGNTPLHLACEQGCLASVGVLTQSCTTPHLHSILKATNYNGHTCLHLASIHGYLGIVELLVSLGADVNAQEPCNGRTALHLAVDLQNPDLVSLLLKCGADVNRVTYQGYSPYQLTWGRPSTRIQQQLGQATAENAQMLPESEDEE | – | no binding | –
[35S]methionine-labeled IκB-α 120-317 (in vitro translated) (other, UniProt P25963 120-317, looked up, [35S]methionine label, Translated in vitro from pcDNA3) ITNQPEIAEALLGAGCDPELRDFRGNTPLHLACEQGCLASVGVLTQSCTTPHLHSILKATNYNGHTCLHLASIHGYLGIVELLVSLGADVNAQEPCNGRTALHLAVDLQNPDLVSLLLKCGADVNRVTYQGYSPYQLTWGRPSTRIQQQLGQLTLENLQMLPESEDEESYDTESEFTEFTEDELPYDDCVFGGQRLTL | – | no binding | –
[35S]methionine-labeled IκB-α 243-317 (in vitro translated) (other, UniProt P25963 243-317, looked up, [35S]methionine label, Translated in vitro from pcDNA3) VNRVTYQGYSPYQLTWGRPSTRIQQQLGQLTLENLQMLPESEDEESYDTESEFTEFTEDELPYDDCVFGGQRLTL | – | no binding | –
